Experimental data reported in the supplement of paper PMC9170038.

Test system: K4 kissing-loop RNA reporter
Experiment: apparent KD of K4 kissing-loop reporter; higher = weaker reporter binding
Conditions: Eterna round: R107
Method: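 RNA-MaP round R107: designed RNA switches with theophylline, tryptophan, arginine or FMN aptamers are transcribed on-chip within common flanks. They are titrated with a labelled K4 kissing-loop RNA reporter in RNA-MaP buffer (100 mM Tris pH 7.5, 80 mM KCl, 4 mM MgCl2), without ligand or with the indicated ligand. Median apparent KD per design.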

[1] = input ligand: theophylline 20 uM
[2] = input ligand: tryptophan 2.4 mM
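Also: bound reporter read as fluorescence of individual clusters on recovered sequencing chips by microscopy, with normalized cluster intensities fitted with a binding model.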

Sequence	apparent KD of K4 kissing-loop reporter (input ligand: FMN 200 uM) [nM]	apparent KD of K4 kissing-loop reporter (input ligand: arginine 13.2 mM) [nM]	apparent KD of K4 kissing-loop reporter (input ligand: none) [nM]	apparent KD of K4 kissing-loop reporter [1] [nM]	apparent KD of K4 kissing-loop reporter [2] [nM]
AAAAUAAACCAGUGAUGUUGGUGUCCAGAUACCAGCGAUAAAAGUCGCCCUUGGCAGCUGUGGACGUACAAAAUAAGUACGUCCU [MatMod 2 - Jieux - Same State - Theophylline A]	703	533	872	529	678
AAAAUAAACCAGUGAUGUUGGUGUCUAGAUACCAGCGACGAAAGUCGCCCUUGGCAGCUGUGGACGUACAAAAUAAGUACGUCCU [MatMod 5 - Jieux - Same State - Theophylline A]	564	327	541	480	472
AAAAUAAUCCAGUGAUGUUGGUAACCAGAUACCAGCGACGAAAGUCGCCCUUGGCAGCUGUGGACGUACAAAAUAAGUACGUCCU	344	415	441	358	312
AAACAUCACUGGGAGUGAUGUUCUCAGUGACGAGGACCGGUACGGCCGCCACUCGCGAGAGAUAUAGUCUAGUAAUGACUGCAUU [Excl Tryptophan A V9]	299	274	292	322	391
AAAGAGUCACUCGAAGCCAUCGAAGAUGGGCGAGGACCGGUACGGCCGCCACUCGGAGUGAUGUUCCGAAGACUGUAAAAUAAAA [MatMod 11 - Jieux - Exclusion - Tryptophan A]	273	242	451	362	355
AAAGAGUCCUGAGCCGAAGAAGAAGGCGGACGAGGACCGGUACGGCCGCCACUCGAAAGGAGUGCGGCUGAGUGAUGUUUGGCCG [Tryptophan A (C-G optomized)]	342	181	284	281	268
AAAGUAUACUGAAGGAGCGAGUAGUGGAAACAUAAACUCAUUGCGAGUGAUGUUCGCAGUACUCAGGUAGGUCGCGGUAAUCGUA [Exclusion Arginine B Gf 12]	499	498	934	554	558
AAAUAAAGCAGUCACCCAGUGAUGUUGGAAGGAGCGUGCGAAAGCACAGGUAGGUCGCCAAAAUAAAGUGGCUGCGGCAAAGCCA [#SwitchBubble 25 #K4Early]	409	428	399	578	305
AAAUAGAUCAGUCAACCAGUGAUGUUGGAAGGAGCGUGCGAAAGCACAGGUAGGUCGCCAUAAUAAAAUUGGCUGAUCAAAAUAA	340	615	648	614	344
AAAUAGAUCAGUCACCCAGUGAUGUUGGAAGGAGCGUGCGAAAGCACAGGUAGGUCGCCAAAAUAAAAGUGGCUGAUCAAAAUAA [#SwitchBubble 5 #K4Early]	336	300	389	526	226
AAAUCGUUCAGAAGGAGCGUGAAUUAUUCUUAAUUAUAUUAUACGAGUGAUGUUCGUGUUUCACAGGUAGGUCGCUGAUCGAUAA [JR_SSArginiB_Sub005]	94.4	126	95.6	148	84.1
AACAUUUUCAGAAGGAGCGUGAAUUAUUCAUAAUUAUAUUAUACGAGUGAUGUUCGUAUUUCACAGGUAGGUCGCUGAUAUAGUA [#02 K4 Arginine B Same State]	94.5	127	104	121	93.1
AACGUUUUGAGAAGGAGCGCGAUAAGCAGUGAUGUUGCUAAAAUUCUAUUUCAAUUUAAUACGCAGGUAGGUCGCUCAAUACGUA [JR_SSArginiB_Sub020]	143	136	138	156	118
AACUCUCAGACACUUGAGUGAUGUUCAGGCCGAGGACCGGUACGGCCGCCACUCGGGUCUGAGAGAGGUUAUCAAAGAUAGCCAA [Omei KL Tryp A SS A v5]	350	194	249	261	273
AAGAGAUAGGGAGGAUAUGCCCUAUUGAGAACCGAGUGAUGUUCGGUAGGACAAAUAGUCCACAGGGUAGAAGGCCCACAUCACA [SS FNM B Tesla 2]	191	213	244	476	267
AAGAGCCUCAAGAGGCAGUAUCUGCCUCAACGAGGACCGGUACGGCCGCCACUCGAAUAAUAGAGUGAUGUUCUAAGAGGCUCAA [AK8 SS Tryptophan A]	710	558	586	548	487
AAGAGGUAGGCGGCCGCCACUUGUUGUGAACACAUACGAGCCAGUGAUGUUGGUAUUGUGGGCGGAAGGACCGGGCCUACCUGAA [Exclusion - Tryptophan B (Freestyle 20)]	317	304	320	328	386
